The values that follow come from patent US11103562B2, “Composition comprising alkaline phosphatase for use in the treatment of arthritides” (AMRIF BV, priority 2017, dated 2021).

“Also recorded” adds a separate entry of the source.

Data set [1] deals with ED1+ and ED2+ synovial macrophages. As to the kind of experiment: Synovial macrophage infiltration (ED1/ED2 immunohistochemistry) in knees of rats with mBSA antigen-induced arthritis. Format: in vivo, rat. As to the method: Experiments were performed using a rat model for RA as published by Chandruputla et al. (BioMed Int, 2015) to show the effects of recombinant human alkaline phosphatase (hRESCAP) on RA. hRESCAP was compared with MTX used as a positive control. The antigen-induced rat model uses two subcutaneous immunizations with a mixture of methylated bovine serum albumin (mBSA), CFA (complete Freund's adjuvant antigen) and CBP (custom Bordetella pertussis antigen) and intra-articular injections of mBSA on one side knee and saline (negative control) on the counter knee. Immunohistochemical (IHC) analysis specifically focussed on infiltration with macrophages and knee swelling is followed over time after therapeutic treatment with MTX, or hRESCAP.
In the rat model, RA is induced in the right knee (RA knee), the contralateral left knee serves as a internal control (control knee). The model allows various options for therapeutic interventions, either before intra-articular injections or during boosts injections with mBSA. Two hours prior to AP administration, rats received a dose of levamisole (50 mg/kg, s.c.). For comparison, arthritic rats received treatment with methotrexate (1 mg/kg, i.p.).
At the end of the experiment, rats were sacrificed and knees were decalcified and processed for IHC analysis of synovial macrophage infiltration, including 2 rat macrophage antibodies; ED1 (homolog of human CD68) and ED2 (homolog of human CD163, a proposed marker for human M2 anti-inflammatory macrophages). IHC analysis of ED1 and ED2 macrophages was performed in multiple quadrants of synovial tissue, as described by Chandruputla et al (BioMed Int, 2015). Macrophage counting included synovial lining layer (SL 1-10) and synovial sublining layers (SL 1-20).
All rats (except healthy) were immunized and arthritis was induced via 1× or 4× intra-articular (i.a) mBSA injections, 4 or 5 days apart in the arthritic (right) knee, the contralateral (left, non-arthritic) knee serving as control knee. For therapeutic interventions, AP (human recombinant placenta AP, TNO, Zeist, The Netherlands) was administered subcutaneously (s.c.) at a dose of 700 U/kg (≈200 μg), MTX (VU University Medical Centers' Pharmacy) was administered intra-peritoneal (i.p.) at two dosages: 0.3 mg/kg (low dose) and 1.0 mg/kg (high dose). The rats were divided in 8 groups, based on different treatments and treatment schedules. In a prophylactic setting, two rats received AP twice prior to intra-articular (i.a.) arthritis induction and four rats received AP twice prior to intra-articular and 4× PBS in between i.a. injections. In the treatment groups, arthritic rats were administered AP twice or 4× after arthritis induction, either as standalone therapy or in combination with low or high dose MTX. Control rats received 500 μL of PBS (i.p.). […] At the end of study, all rats were sacrificed and tissues were excised for further processing and various analyses.
The arthritic and contralateral knees from all rats were dissected in toto and fixed for 7 days at 4° C. in 10% freshly made paraformaldehyde in PBS with 2% sucrose (pH=7.3) prior to decalcification in osteosoft (101728, Merck, Germany) for ˜2.5 weeks at room temperature. Thereafter, knees were embedded in paraffin. Sections of 5 μm were cut through the centre of the joint in longitudinal direction and stained with haematoxylin and eosin (HE) to assess the degree of inflammation in synovial tissue. Liver and spleen sections from all rats were dissected and fixed in 4% paraformaldehyde for 24 h before embedding in paraffin. Sections of 5 μm were cut and stained initially with HE and then for macrophages Staining for macrophages with ED1 (homologous to human CD68), and ED2 (homologous to human CD163, a marker for M2 anti-inflammatory macrophages), or isotype control antibody was performed. Images were captured using a Leica 4000B microscope and Leica digital camera DC500 (Microsystems B. V. Rijswijk, The Netherlands). […]

For data set [2] the following is noted: rats; cited from earlier work.
The mark [3] stands for this setting: 2× AP administration followed by 4× PBS, p<0.01.
Where [4] appears, read: prophylactic AP treatment, 2× AP before intra-articular antigen injection.
Setting [5] is: prophylactic: 2× AP (700 U/kg) prior to intra-articular mBSA injection, p<0.01.

B1: AP: human recombinant placenta alkaline phosphatase (hRESCAP; TNO, Zeist), an ectophosphatase (protein, UniProt P05187 23-506, looked up)
Alkaline phosphatase, …: IIPVEEENPDFWNREAAEALGAAKKLQPAQTAAKNLIIFLGDGMGVSTVTAARILKGQKKDKLGPEIPLAMDRFPYVALSKTYNVDKHVPDSGATATAYLCGVKGNFQTIGLSAAARFNQCNTTRGNEVISVMNRAKKAGKSVGVVTTTRVQHASPAGTYAHTVNRNWYSDADVPASARQEGCQDIATQLISNMDIDVILGGGRKYMFRMGTPDPEYPDDYSQGGTRLDGKNLVQEWLAKRQGARYVWNRTELMQASLDPSVTHLMGLFEPGDMKYEIHRDSTLDPSLMEMTEAALRLLSRNPRGFFLFVEGGRIDHGHHESRAYRALTETIMFDDAIERAGQLTSEEDTLSLVTADHSHVFSFGGYPLRGSSIFGLAPGKARDRKAYTVLLYGNGPGYVLKDGARPDVTESESGSPEYRQQSAVPLDEETHAGEDVAVFARGPQAHLVHGVQEQTFIAHVMAFAACLEPYTACDLAPPAGTTD
As for B1, in data set [1] (setting [3]), the “reduction of synovial ED1+ macrophage infiltration in arthritic knees” value is on record as 2 fold and the “reduction of synovial ED2+ macrophage infiltration in arthritic knees” value stood at 3 fold. In data set [1] (setting [4]), the “ED1+ synovial macrophage infiltration in arthritic knee (in words)” value is listed as “mild infiltration; also recorded: very much reduced; also recorded: markedly reduced infiltration” and the “ED2+ synovial macrophages in arthritic knee (in words)” value is recorded as “do not show this activity; also recorded: markedly reduced infiltration”. Besides, in data set [1] (setting [5]), the “lower quantification of ED1+ macrophages in arthritic knees compared to untreated rats (1× i.a.)” value is reported as 4 fold and the “lower quantification of ED2+ macrophages in arthritic knees compared to untreated rats (1× i.a.)” value is listed as 8 fold. In addition, the “further reduction of ED1+ and ED2+ macrophage counts in arthritic knees” value in data set [1] (therapeutic setting, 4× AP administration) is ~8 fold. Also, in data set [1] (therapeutic treatment, 4× AP after first i.a. and in between boosts), the “ED2+ synovial macrophages in arthritic knee (in words)” value is on record as “much reduced”. Also, the “ED1+ synovial macrophage infiltration in arthritic knee (in words)” value in data set [1] (therapeutic treatment, 4× after first i.a. and in between boosts, AP 700 U/kg, MTX 1 mg/kg) was “reduces ED1+ infiltration; also recorded: very much reduced”. Moreover, the half life time result in data set [2] was “≈ 3 days”.
